Laboratory results: patent US10835608B2, “Polymer-carbohydrate conjugates for drug delivery technology” (priority 2013, dated 2020)

Key:
[1] = Solubility study of propofol: minimum conjugate concentration required to solubilize propofol; type: physicochemical; details: 1% (w/v) propofol in saline based solution
From the text: Table 15 listed the minimum concentration of the conjugates required to solubilize propofol as a solubility test reference.

[2] = Solubility study of voriconazole: minimum polymer to drug ratio required to solubilize voriconazole; details: 1% (w/v) voriconazole in saline based solution
Experimental: 1% (w/v) of voricazole was prepared in a saline based solution with different PEG-carbohydrate conjugates.

Substance | Concentration (minimum concentration of the conjugate required to solubilize propofol) [1] [% w/v] | further results
Cholecalciferol-diethylene-triamineisomal-totriose-mPEG11 | 2.2 | –
Cholesterypropanediamineascorbate-mPEG11 | 4.6 | –
Cholesterypropanediaminegluconate-mPEG11 | 5.3 | Conjugate concentration needed to solubilize propofol, comparison in words [1]: much high conjugate concentration was required
Cholesterypropanediamineisomaltotriose-mPEG11 | 2.0 | –
Cholesterypropanediaminelactobionate-mPEG11 | 3.2 | –
Cholesterytriethylenetetraminelactobionate-di-mPEG11 | 1.6 | –
N,N,N-oleoyl-lactobionoyl-mPEG(12)propanediamine | – | Polymer concentration needed to solubilize voriconazole, comparison in words [2]: much high concentration; Solubilizing Voriconazole (min. polymer to drug ratio) [2]: 20
Retinoylpropanediaminelactobionate-mPEG11 | 2.9 | –
Tocopherylpropanediaminelactobionate-mPEG11 | 3.3 | Conjugate concentration needed to solubilize propofol, comparison in words [1]: the lowest molar concentration
